The source of these data is patent US20200407445A1 (ITEOS THERAPEUTICS, published 2020).

The target of test [1] is T1, human TIGIT expressed on cells (human, UniProt Q495A1 22-244).
T1 sequence (looked up): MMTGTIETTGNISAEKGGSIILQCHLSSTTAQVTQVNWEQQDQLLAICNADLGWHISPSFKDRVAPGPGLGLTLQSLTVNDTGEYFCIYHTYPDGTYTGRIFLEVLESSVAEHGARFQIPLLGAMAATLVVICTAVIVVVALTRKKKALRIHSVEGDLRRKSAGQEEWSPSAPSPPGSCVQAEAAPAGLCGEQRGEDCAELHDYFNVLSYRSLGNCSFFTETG
Description: cell-based or functional assay.

The target in test [2] is T1, human TIGIT expressed on cells. Description: cell-based or functional assay. This is another data set of the same source.
Test [3] deals with T2, Human TIGIT-Fc (human, UniProt Q495A1 22-141).
T2 construct: bought (Creative Biomart); also called TIGIT-Fc antigen; TIGIT-Fc fusion antigen; not shown: Fc part
T2 sequence (looked up): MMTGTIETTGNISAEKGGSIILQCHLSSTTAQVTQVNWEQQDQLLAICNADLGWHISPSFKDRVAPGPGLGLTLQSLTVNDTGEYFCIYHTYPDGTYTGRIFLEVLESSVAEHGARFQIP
The test can be described thus: ForteBio BLI, IgG KD, avid. Background: Biolayer interferometry detects binding as a change in optical thickness at a sensor tip.

In test [4] the target is T1, human TIGIT expressed on cells. Description: flow cytometry on Jurkat-hTIGIT, FIG. 9. The protocol: (§1) Antibodies were incubated with the cells for 20 min at 4° C. in FACS buffer. […] Geometric mean fluorecence intensity was analysed using LSR BD Fortessa. Cell binding was recorded as the median florescence intensity of PE on the transfected line compared to the un-transfected line for each antibody (Table 3).

Test [5] concerns the target T3, Human TIGIT-His (human, UniProt Q495A1 22-141, biotinylated in the ForteBio Fab assay).
T3 construct: bought (Creative Biomart); also called Biotinylated Human TIGIT HIS; TIGIT-His monomer; not shown: His tag
T3 sequence (looked up): T2 sequence (looked up)
The test can be described thus: Biacore, IgG captured, TIGIT-His in solution. The protocol: (§2) Biosensor analysis was conducted at 25° C. in a HBS-EP buffer system (10 mM HEPES pH 7.3, 150 mM NaCl, 3 mM EDTA, 0.05% Surfactant P20) using a Biacore 8K optical biosensor docked with a CMS sensor chip (GE Healthcare, Marlboro, Mass.). The sample hotel was maintained at 8° C. […] This surface type provided a format for reproducibly capturing fresh analysis antibody after each regeneration step. Flow cell 2 was used to analyze captured antibody (60-90 RU) while flow cell 1 was used as a reference flow cell. […] Each of the antigen sample concentrations were run as a single replicate. Two blank (buffer) injections also were run and used to assess and subtract system artefacts. The association (300 s) and dissociation (600 s) phases for all antigen concentrations were performed at a flow rate of 30 uL/min. The surface was regenerated with three sequential injections (15 s, 15 s and 60 s) of 10 mM glycine, pH 1.5 at a flow rate of 30 uL/min. The data was aligned, double referenced, and fit to a 1:1 binding model using Biacore 8K Evaluation Software, version 1.0.
On the technique in general: Surface plasmon resonance follows binding to a sensor surface in real time, without labels.

Test [6] deals with T4, cynomolgus TIGIT on primary CD8+ T cells (Macaca fascicularis (cynomolgus), UniProt A0A7N9I9V4 89-312).
T4 construct: whole, on cells
The test can be described thus: flow cytometry, cynomolgus CD69+CD8+ T cells, FIG. 11. The procedure:
Isolated PBMCs from Macaca fascicularis were obtained from BioPRIM. Cells were thawed and stimulated using the T cell activation/expansion kit for non-human primate (Miltenyi Biotec) at 1:2 (bead:cell ratio) following the manufacturer's specifications. The next day, cells were collected, counted and distributed at 5×10^4 cells per well. […] Then, cells were washed and incubated with the following antibodies and LVD mix for data illustrated in FIGS. 11A and 11B: anti-CD4-PercP-Cy5.5 (clone A161A1, BioLegend 357414); anti-CD8-BV510 (clone SK1, BD Bioscience 563919), CD69-APC-Cy7 (Clone FN50, BioLegend, 310914) and LVD efluor 520 (eBioscience 65-0867-14). Stained cells were analysed by FACS using BD LSR Fortessa. The EC50 value of binding was calculated using the % of positive TIGIT stained cells gated on LVD-CD69+CD8+ T cells.
In general terms: A flow cytometer gives signals particle by particle.

Test [7] concerns the target T3, Human TIGIT-His. Description: Biacore 8K, IgG on CM5 chip, human TIGIT-HIS in solution. The protocol: as §2
Test [8] has as its target T3, Human TIGIT-His. Description: MSD-SET, monovalent (Fab or mAb titrated, not said which). The procedure:
(§3) Briefly, solution equilibrium titrations (SET) were performed in PBS+0.1% IgG-Free BSA (PBSF) with antigen (TIGIT-His monomer) held constant at 10-100 pM and incubated with 3- to 5-fold serial dilutions of Fab or mAbs starting at 10 pM-10 nM. Antibodies (20 nM in PBS) were coated onto standard bind MSD-ECL plates overnight at 4° C. or at room temperature for 30 min. Plates were then blocked by BSA for 30 min with shaking at 700 rpm, followed by three washes with wash buffer (PBSF+0.05% Tween 20). SET samples were applied and incubated on the plates for 150s with shaking at 700 rpm followed by one wash. Antigen captured on a plate was detected with 250 ng/mL sulfotag-labeled streptavidin in PBSF by incubation on the plate for 3 min. The plates were washed three times with wash buffer and then read on the MSD Sector Imager 2400 instrument using 1× Read Buffer T with surfactant. The percent free antigen was plotted as a function of titrated antibody in Prism and fit to a quadratic equation to extract the KD. To improve throughput, liquid handling robots were used throughout MSD-SET experiments, including SET sample preparation.

The target in test [9] is T1, human TIGIT expressed on cells. Description: flow cytometry, 100 nM Ab, Jurkat-hTIGIT vs untransfected. The procedure:
as §1

The target of test [10] is T5, mouse TIGIT expressed on cells (mouse, UniProt P86176 29-249).
T5 construct: whole, on cells; on Jurkat cells engineered to express mouse TIGIT; also called mTIGIT; Jurkat-mTIGIT
T5 sequence (looked up): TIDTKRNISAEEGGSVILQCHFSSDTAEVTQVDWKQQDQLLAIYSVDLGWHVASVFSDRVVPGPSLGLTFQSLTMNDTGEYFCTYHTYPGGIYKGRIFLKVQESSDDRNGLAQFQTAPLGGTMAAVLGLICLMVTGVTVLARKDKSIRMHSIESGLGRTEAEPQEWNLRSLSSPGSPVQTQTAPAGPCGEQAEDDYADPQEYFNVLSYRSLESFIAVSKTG
The test can be described thus: flow cytometry, 100 nM Ab, Jurkat-mTIGIT vs untransfected. The procedure: as §1

In test [11] the target is T3, Human TIGIT-His. Description: MSD-SET, monovalent (Fab or mAb titrated, not said which). The protocol:
as §3
This is another data set of the same source.

Test [12] has as its target T1, human TIGIT expressed on cells. The test can be described thus: flow cytometry, competition with CD155-His (5 ug/ml) on Jurkat-hTIGIT.
Test [13] shares this target. The test can be described thus: flow cytometry, total human primary CD8+ T cells, % TIGIT stained cells, FIG. 10A.

T4 sequence (A0A7N9I9V4 entry or part of it): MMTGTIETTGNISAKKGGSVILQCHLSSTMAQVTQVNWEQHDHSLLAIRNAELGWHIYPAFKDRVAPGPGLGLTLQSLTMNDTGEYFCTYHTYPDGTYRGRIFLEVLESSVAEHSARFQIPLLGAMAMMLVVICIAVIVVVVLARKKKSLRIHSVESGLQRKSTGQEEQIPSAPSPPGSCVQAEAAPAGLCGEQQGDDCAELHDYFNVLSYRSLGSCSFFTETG

B1: anti-TIGIT antibody clone 29520 (IgG) (antibody, V domains shown)
VH: QVQLVESGGGLVQPGRSLRLSCAASGFTFRDYAMHWVRQAPGKGLEWVSGITWNSGLIGYADSVKGRFTISRDNAKNSLYLQMNSLRAEDTALYYCAKPVPRLRGLDVWGQGTMVTVSS
VL: DIQLTQSPSSVSASVGDRVTITCRASQGISSWLAWYQQKPGKAPKLLIYGASSLQSGVPSRFSGSGSGTDFTLTISSLQPEDFATYYCQQAFYLPWTFGGGTKVEIK
As to B1, the “EC50 for increase in IFNg secretion by human primary CD8 T cells, FIG. 13B” value in test [1] stood at 11.1 nM. The “EC50 of Jurkat-hTIGIT cell activation (luciferase), FIG. 12B” value in test [1] stood at 2.3 nM. Besides, the “increase of IFNg secretion over isotype control, human primary CD8+ T cells + CHO-TCR-CD155” value in test [1] came out at 5.4 fold. Also, in test [2], the “Induction over Isotype control (fold change), luciferase, Jurkat-hTIGIT + CHO-TCR-CD155, 133 nM” value was determined as 2.52 fold. Also, the Kd (commonly the equilibrium constant for the complex coming apart) in test [3] amounted to 0.384 nM; in test [5] it was 0.716 nM; in test [7], 0.716 nM; in test [8] it was 0.21 nM; in [11] it was 0.21 nM. The figures for the EC50 in [4], in [6] and in test [13] were 0.119 nM, 1.73 nM and 0.181 nM, respectively. The “FON (Fold Over Negative)” value in test [9] turned out to be 166 fold; in test [10], 535 fold. The IC50 (usually the point on the concentration scale where inhibition reaches its midpoint) in test [12] came out at 0.102 nM.
